Measured values published in patent publication US11207404B2, “Compositions and uses” (priority 2015, dated 2021).

Tests used:
[1] = Visual assessment of adverse effect on injection site in pigs; assay type: in vivo; details: extra dose of 150 μg of Compound A alone; 2 pigs
Experimental: A brief adverse effect visual assessment on injection site was performed on 2 random chosen pigs by testing an extra dose of 150 μg of Compound A alone.

[2] = Antigen fragment solubility/stability (Table 1); assay type: physicochemical
Description: Antigen (abbreviated as “Ag” herein) fragments employed in the present invention typically have certain properties useful in conjugation. In one aspect, the antigen fragments are proteins that are stable in solution and not prone to any substantial aggregation. In another aspect the antigen fragment contains a minimum of three available amines at which conjugation can occur and have a size of less than 500 kD.
Such fragments are readily commercially available and/or can be readily made by those skilled in the ar.

Compound | visual adverse effect of the injected site [1] | Solubility [2] | Stability [2]
CCCCOc1nc(N)c2[nH]c(=O)n(CC3CCNCC3)c2n1 [Compound A] | No visual adverse effect of the injected site was observed | – | –
Tetanus Toxoid | – | 30 mg/mL | years
